Experimental data taken from PMC5640589.

System: T1, His6-SACE_3446B (Saccharopolyspora erythraea A226), ORF:3b7da887
T1 sequence: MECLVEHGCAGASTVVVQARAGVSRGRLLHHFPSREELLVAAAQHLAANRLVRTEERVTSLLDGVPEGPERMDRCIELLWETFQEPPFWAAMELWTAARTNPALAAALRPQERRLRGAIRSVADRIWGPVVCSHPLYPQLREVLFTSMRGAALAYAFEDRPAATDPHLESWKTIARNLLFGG
Experiment: EMSA
Settings: 10 mM Tris pH 7.5, 5 mM MgCl2, 50 mM EDTA ([…]

| Sequence | binding |
| --- | --- |
| GCGAGTGTCCGTTCGAGTGGCGGCTTGCGCCCGATGCTAGTCGCGGTTGATCGGCGATCGCAGGTGCACGCGGTCGATCTTGACGGCTGGCGAGAGGTGCGGGGAGGATCTGACCGACGCGGTCCACACGTGGCACCGCGATGCTGTTGTGGGCTGGACAATCGTGCCGGTTGGTAGGATCCAGCG (double strand) [ermE promoter] | no binding |
| GCGTCCCCCTACTCGACGACCACGCAATGGGCGAACAATATAGGAAGGATCAAGAGGTTGACATCGCCTCGTCGAGCCAACGAACCTGTGAACATCTGCATGTTGACAAGATCAACGGCGGCTACCTACTGTGGTGGCCCAGTGACGGGTTGCCGCACATCGCGCTGGGGAGATTCTTTGAATTTCGCCCGTAGCACCGACCTGGAAAGCGAGCAAATGCTCCG (double strand) [eryAI promoter] | no binding |
